In patent US20140213529A1:

Target: CD22 (UniProt P20273)
Experiment: cell-based or functional assay

Chain of UniProt P20273 (P20273 20-847 limits assumed): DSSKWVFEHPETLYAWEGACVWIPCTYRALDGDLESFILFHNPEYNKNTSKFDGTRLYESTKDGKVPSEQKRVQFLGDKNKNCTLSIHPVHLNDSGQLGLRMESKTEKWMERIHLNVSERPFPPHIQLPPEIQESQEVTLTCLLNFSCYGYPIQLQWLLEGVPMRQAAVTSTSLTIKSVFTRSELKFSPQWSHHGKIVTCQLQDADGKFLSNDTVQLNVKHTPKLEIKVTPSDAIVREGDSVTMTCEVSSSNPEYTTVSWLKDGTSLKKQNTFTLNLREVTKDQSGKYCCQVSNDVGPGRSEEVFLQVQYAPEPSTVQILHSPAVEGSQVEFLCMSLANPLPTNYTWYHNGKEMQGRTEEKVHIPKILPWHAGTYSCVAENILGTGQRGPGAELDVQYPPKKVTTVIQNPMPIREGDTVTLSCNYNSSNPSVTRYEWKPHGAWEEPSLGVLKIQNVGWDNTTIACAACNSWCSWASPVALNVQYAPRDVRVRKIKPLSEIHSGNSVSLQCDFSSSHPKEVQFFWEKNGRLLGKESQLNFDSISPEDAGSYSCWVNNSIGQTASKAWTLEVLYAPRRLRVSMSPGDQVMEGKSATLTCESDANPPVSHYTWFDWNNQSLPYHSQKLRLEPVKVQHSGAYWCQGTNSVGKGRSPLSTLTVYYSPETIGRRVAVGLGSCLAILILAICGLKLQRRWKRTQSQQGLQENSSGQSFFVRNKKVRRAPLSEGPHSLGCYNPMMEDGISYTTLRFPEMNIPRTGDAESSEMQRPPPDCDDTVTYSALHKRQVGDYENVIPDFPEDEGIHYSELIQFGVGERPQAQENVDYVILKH

Substance: HA22-LR
- cytotoxicity IC50 (ng/ml) on CA46 cells: 0.11 ng/mL
- cytotoxicity IC50 (ng/ml) on Daudi cells: 0.18 ng/mL
- cytotoxicity IC50 (ng/ml) on Raji cells: 0.41 ng/mL
